The record followed here is article PMC3913652.

This test concerns the target rat GLP-1 receptor (rat) (UniProt P32301).

rat GLP-1 receptor (rat), sequence (P32301 22-463): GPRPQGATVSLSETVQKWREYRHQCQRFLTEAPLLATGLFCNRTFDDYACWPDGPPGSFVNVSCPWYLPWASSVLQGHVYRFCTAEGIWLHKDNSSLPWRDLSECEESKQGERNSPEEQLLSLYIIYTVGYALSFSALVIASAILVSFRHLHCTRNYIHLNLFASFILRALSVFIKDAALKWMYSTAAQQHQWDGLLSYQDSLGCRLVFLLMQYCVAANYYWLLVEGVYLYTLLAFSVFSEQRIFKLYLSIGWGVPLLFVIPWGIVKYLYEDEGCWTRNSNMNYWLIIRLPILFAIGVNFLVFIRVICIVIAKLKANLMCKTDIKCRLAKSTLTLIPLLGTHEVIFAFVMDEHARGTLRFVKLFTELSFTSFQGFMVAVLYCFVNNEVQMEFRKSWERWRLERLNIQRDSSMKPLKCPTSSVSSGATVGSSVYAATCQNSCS

In the case of [Leu^14]exenatide (peptide), the EC50, cAMP in 6–23 clone 6 cells (GLP-1 Receptor Functional Assay, 0.1% BSA) amounted to 6 pM.
